Patent CN114230673A (dated 2022)

What was measured:
Assay in all cases: ELISA, biotinylated recombinant protein on streptavidin plate, HRP anti-His detection
[1] = target: T1, 生物素标记重组人CD27 (rhCD27) (human, UniProt P26842 21-192, limits assumed, biotin label (site not stated))
T1 construct: Bought protein
T1 sequence (looked up): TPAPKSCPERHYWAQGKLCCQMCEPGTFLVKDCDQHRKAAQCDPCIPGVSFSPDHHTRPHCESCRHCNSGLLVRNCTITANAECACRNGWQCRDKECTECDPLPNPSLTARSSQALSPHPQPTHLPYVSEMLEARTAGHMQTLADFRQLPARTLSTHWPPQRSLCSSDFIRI

[2] = target: T2, 生物素标记重组人CD40 (rhCD40) (human, UniProt P25942 21-193, biotin label (site not stated))
T2 construct: Bought protein

[3] = target: T3, 生物素标记重组人BCMA (rhBCMA) (human, UniProt Q02223 1-54, biotin label (site not stated))
T3 construct: Bought protein
T3 sequence (looked up): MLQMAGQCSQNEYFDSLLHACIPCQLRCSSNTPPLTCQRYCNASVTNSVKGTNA

Measured: binding result

T2 sequence (P25942 21-193 limits assumed): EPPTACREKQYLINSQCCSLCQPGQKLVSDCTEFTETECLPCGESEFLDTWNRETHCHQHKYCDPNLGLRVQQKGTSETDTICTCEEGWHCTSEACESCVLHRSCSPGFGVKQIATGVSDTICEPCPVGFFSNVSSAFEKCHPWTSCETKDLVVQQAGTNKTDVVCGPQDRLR

B1: anti-CD19 scFv (scFv)
scFv: DIQMTQTTSSLSASLGDRVTISCRASQDISKYLNWYQQKPDGTVKLLIYHTSRLHSGVPSRFSGSGSGTDYSLTISNLEQEDIATYFCQQGNTLPYTFGGGTKLEITGGGGSGGGGSGGGGSEVKLQESGPGLVAPSQSLSVTCTVSGVSLPDYGVSWIRQPPRKGLEWLGVIWGSETTYYNSALKSRLTIIKDNSKSQVFLKMNSLQTDDTAIYYCAKHYYYGGSYAMDYWGQGTSVTVSS
notes: Soluble scFv used in the ELISA and flow cytometry; also called CD19抗体; 小鼠抗人anti CD19-scFv抗体; not shown: His tag implied by the anti-His detection antibody
no binding: [1] | [2] | [3]
